± gives the uncertainty stated by the source.
Assay: protein stability index of a GFP-peptide fusion (yeast GPS) (PSI 1-4); higher = more stable; sorted into four equal gates, so the index is relative within each strain
Procedure, shortened: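 For each peptide, the protein stability index sums the read frequency in every gate after multiplying it by the gate number. Read frequencies came from plasmids that were PCR-amplified from each gate and Illumina-sequenced, with reads assigned to strains by barcodes. The gates were four equal bins of GFP/Cherry fluorescence ratio applied to mid-log yeast in leucine-free medium carrying a pooled library of tiled 17-residue yeast protein peptides fused downstream of GFP on a Cherry-expressing plasmid.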

Sequence	protein stability index (doa10∆)	protein stability index (pdr5∆)	protein stability index (san1∆)	protein stability index (ubr1∆)
GENNINFQKASATLDGC [BRN1]	2.94 ± 0.23	3.3 ± 0.21	3.12 ± 0.25	
SFYDAIFFNIPLVAHLG [YJL039C/NUP192]	1.73 ± 0.037	1.23 ± 0.042	2.02 ± 0.027	1.22 ± 0.034
AISTGNWSLKRFKMERA [RET1]	1.94 ± 0.097	1.93 ± 0.11	2.44 ± 0.11	1.68 ± 0.077
SNGEFIPHIFYSLHQIR [CSE2]	2.02 ± 0.07	2.1 ± 0.054	2.12 ± 0.072	2.34 ± 0.057
DEIKAQRKEIKDRISSC [SMC4]	3 ± 0.062	3.03 ± 0.054	3.13 ± 0.061	3.07 ± 0.053
AELKLAGEFGLKNKREI [RPS9B]	3.08 ± 0.11	3.21 ± 0.15	3.2 ± 0.18	3.21 ± 0.12
QVLLDEEYKQLVKDRKF [RPO21]	3.07 ± 0.085	3.28 ± 0.06	3.15 ± 0.14	2.82 ± 0.1
TVINEQQREAVRQLYKG [RPL35A]	3.44 ± 0.094	3.43 ± 0.14	3.13 ± 0.12	3.31 ± 0.079
AAASLPSKKLKTEDGFV [RPC82]	3.21 ± 0.1	3.09 ± 0.1	2.84 ± 0.091	3.04 ± 0.065
VNASVDVDQHGNDNNSD [SWI3]	3.13 ± 0.085	3.46 ± 0.081	3.52 ± 0.059	3.3 ± 0.038
NAIFQMESEEVPLTKRY [PCI8]	2.81 ± 0.05	2.82 ± 0.045	2.85 ± 0.038	3.08 ± 0.044
NKLTGKQIVFEIPSQTN [RPS7B]	2.79 ± 0.081	3.06 ± 0.13	2.88 ± 0.095	2.66 ± 0.086
DSVFEQNEMIDAIAVTK [RPL3]	2.57 ± 0.095	2.8 ± 0.12	2.31 ± 0.1	2.51 ± 0.042
RTKTPGPGGQAALRALA [RPS14B]	2.39 ± 0.077	2.55 ± 0.11	2.23 ± 0.1	2.46 ± 0.08
KAPLEDDDKKPDDDKIV [RPT1]	2.67 ± 0.15	3.11 ± 0.17	3.19 ± 0.14	3.26 ± 0.067
CISLGSTKLSRPFDSFG [ITC1]	3.06 ± 0.067	2.93 ± 0.061	3.03 ± 0.048	3.01 ± 0.08
ESRKAFFLGYMINRLLL [RPB2]	1.17 ± 0.092	1.17 ± 0.11	1.12 ± 0.09	1.09 ± 0.072
SQFLKRVHANLQCISQI [SNF11]	1.17 ± 0.043	1.25 ± 0.041	1.21 ± 0.07	1.2 ± 0.057
ARSIDVEKGVNPTKSKE [ECM29]	3.32 ± 0.26	3.51 ± 0.24		3.2 ± 0.29
TAPANTTDANGSKENYQ [MED2]	2.08 ± 0.066	2.06 ± 0.058	3.02 ± 0.047	2.86 ± 0.066
LLVKFIKFFWNNTHVGR [YLR018C/POM34]	2.97 ± 0.22	2.48 ± 0.085	2.51 ± 0.085	2.66 ± 0.095
IRRTFNIVNDFTPEEEA [SKP1]	2.71 ± 0.099	3.28 ± 0.05	3.16 ± 0.05	3.08 ± 0.041
SGQTFAYGVLDSNYKWD [PRE2]	2.39 ± 0.075	2.76 ± 0.098	1.85 ± 0.14	2.7 ± 0.11
GVAHLLNRFNFQNTNTR [QCR2]	2.69 ± 0.084	2.58 ± 0.086	2.43 ± 0.15	2.5 ± 0.062
QRDLGLYVVGLFDTYHA [RRP6]	2.38 ± 0.046	2.53 ± 0.043	1.91 ± 0.062	2.57 ± 0.033
SASHILIPASDLSWSKQ [PRP8]	1.48 ± 0.069	1.93 ± 0.058	1.53 ± 0.082	1.95 ± 0.038

Sequence	protein stability index (doa10∆)	protein stability index (pdr5∆)	protein stability index (san1∆)	protein stability index (ubr1∆)
KRLNFSFVGDYMHDTEL [GRR1]	2.55 ± 0.065	1.89 ± 0.073	2.47 ± 0.11	3.22 ± 0.085
QKSFEQLNSRAVAVVVD [RPN11]	1.45 ± 0.12	1.72 ± 0.09	1.51 ± 0.16	1.48 ± 0.058
GDKEATAPLIQRKNKKN [RPN8]	3.22 ± 0.15	3.42 ± 0.12	3.18 ± 0.088	3.15 ± 0.18
DSKLLPKNIEPPLTSQY [SWI3]	2.89 ± 0.058	2.91 ± 0.049	2.92 ± 0.041	2.92 ± 0.04
HVINVGKTWEKLVLAAR [RPS0A]	3.41 ± 0.15	3.49 ± 0.21	3.39 ± 0.13	3.12 ± 0.098
DARGVIGVIAGGGRVDK [RPL2A]	3.18 ± 0.093	3.11 ± 0.11	3.06 ± 0.11	2.86 ± 0.071
QNIETRQLANLIPFIVK [NUT1]	1.61 ± 0.054	1.58 ± 0.041	1.41 ± 0.086	1.63 ± 0.039
KNGVIPEESKGSFKYIT [SWP82]	3.03 ± 0.05	3.09 ± 0.067	2.96 ± 0.047	3.18 ± 0.052
YTLTEEGVEYLREYLNL [RPS10A]	3.28 ± 0.11	3.37 ± 0.095	3.51 ± 0.16	3.39 ± 0.12
RPLPQWIRLRTNNTIRY [RPL39]	1.85 ± 0.056	1.81 ± 0.054	1.5 ± 0.067	1.62 ± 0.052
NATANATANATANATAE [SNF11]	3.15 ± 0.04	3.33 ± 0.042	3.18 ± 0.042	3.325 ± 0.03
EPHAVSLAWSADGQTLF [ASC1]	2.85 ± 0.12	3.06 ± 0.14		2.79 ± 0.26
AIMNCADNSGARNLYII [RPL23A]	2.33 ± 0.089	3.14 ± 0.17	2.52 ± 0.14	3.1 ± 0.17
SQYFKFKNDFNSFYYTS [RPN9]	2.1 ± 0.075	2.33 ± 0.06	2.51 ± 0.084	2.58 ± 0.056
MTYKNKLTVCFDDILKV [MED2]	2.13 ± 0.048	2 ± 0.041	1.9 ± 0.071	2.08 ± 0.033
DITVHGEQIIVHPVNER [RRP45]	2.23 ± 0.078	2.15 ± 0.1	1.82 ± 0.14	1.9 ± 0.083
QIIQRDKINKYSLIRET [SNF5]	1.39 ± 0.093	1.3 ± 0.13		1.15 ± 0.2
LESSITDAGVLALKLEL [YJL039C/NUP192]	1.57 ± 0.06	1.48 ± 0.061	1.3 ± 0.13	1.57 ± 0.085
NLSSLIVEINNVSNTFN [YJL041W/NSP1]	2.45 ± 0.043	2.72 ± 0.046	2.62 ± 0.04	2.58 ± 0.032
QIEKKEIKKMIITNINA [YCG1]	2.64 ± 0.11	2.75 ± 0.11	2.7 ± 0.13	2.47 ± 0.15
VDENETVLESLGRLNKL [LIN1]	2.79 ± 0.075	3.03 ± 0.073	2.88 ± 0.069	3.03 ± 0.053
AAPAATSAASGDAAPAE [RPP0]	2.6 ± 0.091	2.38 ± 0.049	1.6 ± 0.1	2.42 ± 0.063
HKDSFYDRATLTQLLSM [RPO31]	1.79 ± 0.066	2.09 ± 0.062	2.09 ± 0.071	1.35 ± 0.04
QGITRNVVNYLSINKNF [RPC17]	1.31 ± 0.059	1.62 ± 0.051	1.23 ± 0.093	1.52 ± 0.038
VGDFLLQYANNAVISHA [SIN4]	1.99 ± 0.074	1.79 ± 0.05	1.82 ± 0.074	1.49 ± 0.035
EIIADWIWDMNVHGSLE [BRR2]	1.89 ± 0.1	2.43 ± 0.095	2.88 ± 0.085	2.18 ± 0.054

From the supplement of paper PMC9732359
